According to patent publication US20080279844:

Target: T1, IκBα, P25963
T1 chain: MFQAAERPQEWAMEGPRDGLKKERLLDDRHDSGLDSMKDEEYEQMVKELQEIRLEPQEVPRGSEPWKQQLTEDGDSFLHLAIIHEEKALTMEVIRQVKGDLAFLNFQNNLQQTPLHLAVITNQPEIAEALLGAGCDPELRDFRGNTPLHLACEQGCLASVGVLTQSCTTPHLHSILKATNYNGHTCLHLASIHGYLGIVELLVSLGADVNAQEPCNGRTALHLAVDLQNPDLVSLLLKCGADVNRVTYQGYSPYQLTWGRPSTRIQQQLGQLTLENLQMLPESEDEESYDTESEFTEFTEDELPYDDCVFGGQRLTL

B1: Tissue transglutaminase (TG2, EC 2.3.2.13) (protein)
chain: AEELVLERCDLELETNGRDHHTADLCREKLVVRRGQPFWLTLHFEGRNYEASVDSLTFSVVTGPAPSQEAGTKARFPLRDAVEEGDWTATVVDQQDCTLSLQLTTPANAPIGLYRLSLEASTGYQGSSFVLGHFILLFNAWCPADAVYLDSEEERQEYVLTQQGFIYQGSAKFIKNIPWNFGQFEDGILDICLILLDVNPKFLKNAGRDCSRRSSPVYVGRVVSGMVNCNDDQGVLLGRWDNNYGDGVSPMSWIGSVDILRRWKNHGCQRVKYGQCWVFAAVACTVLRCLGIPTRVVTNYNSAHDQNSNLLIEYFRNEFGEIQGDKSEMIWNFHCWVESWMTRPDLQPGYEGWQALDPTPQEKSEGTYCCGPVPVRAIKEGDLSTKYDAPFVFAEVNADVVDWIQQDDGSVHKSINRSLIVGLKISTKSVGRDEREDITHTYKYPEGSSEEREAFTRANHLNKLAEKEETGMAMRIRVGQSMNMGSDFDVFAHITNNTAEEYVCRLLLCARTVSYNGILGPECGTKYLLNLNLEPFSEKSVPLCILYEKYRDCLTESNLIKVRALLVEPVINSYLLAERDLYLENPEIKIRILGEPKQKRKLVAEVSLQNPLPVALEGCTFTVEGAGLTEEQKTVEIPDPVEAGEEVKVRMDLLPLHMGLHKLVVNFESDKLKAVKGFRNVIIGPA
  in vitro BPA labeling of IκBα immunoprecipitates in the presence of Ca2+ (3 mM), probed with horseradish peroxidase-conjugated streptavidin: demonstrated the presence of high-molecular-weight forms (dimeric and polymeric) of IκBα
